# Source: patent US9090686B2, “Antibodies for the treatment of HIV” (Pierre Fabre Medicament, priority 2009, dated 2015)
# Assays:
# [1] = test system: HIV-1 primary isolate KON (X4 virus); experiment: HIV-1 KON replication in PHA-activated human PBMC, single cycle neutralization, p24 FACS (Example 5); assay type: cell-based; conditions: HIV-1 KON replication in PBMC, molar value in brackets
# Description: PBMC from normal donors seronegative for HIV-1 were isolated from buffy coats or cytapheresis by Ficoll-Hypaque gradient centrifugation. PBMC were activated in the presence of PHA in RPMI 1640 cell culture medium containing 25 mM HEPES, 5 ml penicillin (10000 U/ml)-streptomycin (10000 μg/ml) 2 mM L-glutamine, supplemented with 10% heat-inactivated FCS and were used as cellular targets in a single cycle neutralization assay. HIV-1 replication in primary human PBMC was performed by analyzing intracellular staining of viral p24 antigen by FACS analysis. Briefly, 25 μl per well of various dilutions of Mabs 515H7, 301aE5 and 12G5 (R&D Systems) or culture medium as control (RPMI 1640, 10% FCS, 0.1% IL-2), were incubated for 1 h at 37° C. with 25 μl per well of HIV-1 KON X4 primary isolate dilution, in duplicate. PHA-activated human PBMC (25 μl/well) at 20×10^6 cells/ml were added to the Mab/virus mixture in a 96-well plate (U-bottom, Costar 3599) and cultured for 24 to 36 hours at 37° C. in RPMI 1640 10% FCS and 0.1% IL-2. […] To detect HIV-infected PBMC, intracellular staining of viral p24 antigen was performed and analyzed by flow cytometry. […] The percentage of p24-positive cells in the different samples was determined by gating 20,000 events on a living cell population. The living cell subsets were analyzed for p24 expression relative to background staining of uninfected cells. […]
# R5 HIV-1 BaL virus = experiment: GHOST cells expressing CD4 and CCR5 infected with R5 HIV-1 BaL virus; assay type: cell-based
# Description: In order to determine the specificity of CXCR4 515H7 Mab, we evaluated the anti-HIV-1 activity of this Mab using GHOST cells expressing CD4 and CXCR4 or CCR5.
# This assay is performed in 48 h using either the X4 HIV-1 LAI virus (with Ghost cells expressing CXCR4) or the R5 HIV-1 BaL virus (with Ghost cells expressing CCR5). 500 μl of Ghost cells were plated (2.5 10^5 cells/ml) for 24 h in Dulbecco culture medium supplemented with 10% FCS. Various dilutions of Mab 515H7 were incubated for 1 h at 37° C. and then diluted HIV-1 LAI virus ( 1/10) and HIV-1 BaL virus ( 1/7) were added to the cells for 48h. Cells were submitted to trypsin and washed with PBS 1×. 300 μL of 1.5% paraformaldehyde were added to the cell pellets for 2 h at +4° C. in the dark, in order to fix the cells and to inactivate viruses. GFP-positive cells were analyzed by flow cytometry and inhibition of HIV-1 infection was calculated.
# The percent of inhibition of infected cells was defined as […] with control infected wells with no Mab.
molecule,measurement,setting,value
"515H7: murine anti-CXCR4 monoclonal antibody; light chain variable domain SEQ ID No. 7, heavy chain variable domain SEQ ID No. 8 (antibody, listed as Mus musculus, V domains shown) VH: EVNLVESGGGLVQPGGSLRLSCATSGFTFTDNYMSWVRQPPGKALEWLGFIRNKANGYTTDYSASVRGRFTISRDNSQSILYLQMNALRAEDSATYYCARDVGSNYFDYWGQGTTLTVSS VL: DIVMSQSPSSLAVSAGEKVTMSCKSSQSLFNSRTRKNYLAWYQQKPGQSPKLLIYWASARDSGVPARFTGSGSETYFTLTISRVQAEDLAVYYCMQSFNLRTFGGGTKLEIK",IC90,[1],66 nM
same,inhibition of HIV-1 R5 BaL virus infection in CCR5 expressing Ghost cells (in words),R5 HIV-1 BaL virus,totally inactive
"301aE5: murine anti-CXCR4 monoclonal antibody; light chain variable domain SEQ ID No. 34, heavy chain variable domain SEQ ID No. 35 (antibody, listed as Mus musculus, V domains shown) VH: QVQLKESGPGLVAPSQSLSITCTVSGFSLTDYGVYWVRQPPGKGLEWLGMIWGDGTTDYNSALKSRLSISKDNSKSQVFLKMNTLQTDDTARYYCARGRQFGFDYWGQGTTLTVSS VL: DIVMSQSPSSLAVSAGEKVTMRCKSSQSLFNSRTRKNYLAWYQQKPGQSPKLLIFWASIRESGVPDRFTGSGSGTDFTLTISSVQAEDLAVYYCKQSYNLRTFGGGTKLEIK",IC90,[1],1000 nM
